Laboratory results as given in patent US20230129084A1, “COMPOSITE IMPLANTS” (Re-Vana Therapeutics Ltd., priority 2015, published 2023).
Each block holds one molecule with its values, some of them ahead of it.

How the values were obtained:
[1] = test system: rat eye; test: In vivo implant formation of ISPcI in rat eye following intravitreal injection; settings: day 1, day 6 and day 18
Experimental: 2 μl of ISPcI gel formulation was injected by intravitreal route in the rat eye, following by UV light exposure for 2 min, fundus images were collected to locate the implant formation and image model dye release within the eye. Likewise PPcI were administered by subconjunctival route and any surface inflammation monitored by experienced ophthalmologist

[2] = In vitro drug release from in situ photocrosslinked implants (ISPcI) in PBS
Experimental: (§1) For drug release studies selected ISPcI gel formulation were injected (approx. 0.2 g or 0.1 g) into desired amount of PBS (pH 7.3±0.2). Sink conditions were maintained for each drug type. ISPcI were formed by exposing them immediately to 365 nm using bench-top UV light (at 3.1±0.1 mW/cm^2, CAMAG, Muttenz, Switzerland) for varying periods of time in PBS. The implants were stored in an incubator (37° C. and 60 rpm) for the duration of the release study. At predetermined time intervals the entire PBS medium was removed and replaced with equal amount of fresh PBS. All the experiments were carried out in triplicates. The concentration of released drug molecule in the PBS samples was analyzed as described below.
BSA, OVA and bevacizumab (Avastin) were assayed using a Pierce™ Micro BCA protein assay kit (Thermo Scientific, Hampton, UK). To a microwell, 150 μL of BSA, OVA or BVZ standard or release sample was pipetted and 150 μL of working reagent was added. A plate shaker ensured thorough mixing. The 96-well plate was covered and incubated for 2 hours at 37° C. Once the plate was allowed to return to room temperature, a UV plate reader measured the absorbance at 562 nm. The average absorbance reading of the blank was subtracted from those of the standards/samples.

[3] = In vitro drug release from preformed photocrosslinked implants (PPcI) in PBS; assay type: physicochemical; settings: PPcI 30% w/w PLGA 75/25 / PEGDA 700, 5 runs, lamp intensity 100%, after 266 days
Experimental: as §1
Analysis of DEX and TA samples were carried out using reversed-phase HPLC with UV detection (Agilent 1260 Infinity Quaternary System) using an Agilent Zorbax Eclipse Plus 250 mm C18 column (250 mm length, 4.6 mm internal diameter and 5 μm particle size) and an Agilent Zorbax guard column held at 25° C. […] Analysis required a mobile phase of 60% water and 40% acetonitrile with UV absorbance at 270 nm (for DEX) and 236 nm (for TA) at a flow rate of 1 ml/min and 0.8 ml/min respectively. Analysis of FITC-Dextran 150 kDa release was conducted using a fluorescence spectrophotometer. […] Fluorescence excitation occurred at 480 nm with emission measured at 520 nm. […]

[4] = ELISA test for bioactivity of OVA released from ISPcI; settings: released from ISPcI at 37±2° C., after 1 and 3 months
Experimental: (Agilent Technologies UK Ltd, Stockport, UK). […] A plate shaker ensured thorough mixing.
Due to slow degradation rate of the crosslinked ISPcIs, the drastic drop in local pH is further delayed (unlike PLGA only implants) which is especially important and an advantage in protecting the sensitive molecules such as peptides and proteins. […] For example, an ELISA test was conducted to determine the bioactivity of released OVA from the ISPcI, at 37±2° C., after 1 and 3 months, respectively.

release of fluorescein sodium from ISPcI implant in the eye (fundus images) [1]: slow and continuous release
Molecule: O=C1OC2(c3ccc(O)cc3Oc3cc(O)ccc32)c2ccccc21 [fluorescein sodium]

Molecule: Bevacizumab [BVZ]
BVZ released ([2]; 30% PLGA ISPcI implants UV crosslinked for 30 sec): ~100%
BVZ released ([2]; 30% PLGA ISPcI implants UV crosslinked for 2.5 min): approximately 41%

Molecule: Fluorescein isothiocyanate-dextran [FITC-Dextran 150 kDa]
% release [3]: ~27%

B1: ovalbumin (protein, UniProt P01012 2-386, looked up)
Ovalbumin: GSIGAASMEFCFDVFKELKVHHANENIFYCPIAIMSALAMVYLGAKDSTRTQINKVVRFDKLPGFGDSIEAQCGTSVNVHSSLRDILNQITKPNDVYSFSLASRLYAEERYPILPEYLQCVKELYRGGLEPINFQTAADQARELINSWVESQTNGIIRNVLQPSSVDSQTAMVLVNAIVFKGLWEKAFKDEDTQAMPFRVTEQESKPVQMMYQIGLFRVASMASEKMKILELPFASGTMSMLVLLPDEVSGLEQLESIINFEKLTEWTSSNVMEERKIKVYLPRMKMEEKYNLTSVLMAMGITDVFSSSANLSGISSAESLKISQAVHAAHAEINEAGREVVGSAEAGVDAASVSEEFRADHPFLFCIKHIATNAVLFFGRCVSP
notes: model protein molecule, Mw of 45 kDa
OVA remained active (bioactivity of released OVA by ELISA) [4]: ~97±2%
